Source: US10921309 (dated 2021)

What was measured:
[1] = molecular target: T1, OBn(GGS)2t-FhuA (barnase nanopore sensor) (Bacillus amyloliquefaciens / E. coli); assay: other, single-molecule nanopore
T1 chain: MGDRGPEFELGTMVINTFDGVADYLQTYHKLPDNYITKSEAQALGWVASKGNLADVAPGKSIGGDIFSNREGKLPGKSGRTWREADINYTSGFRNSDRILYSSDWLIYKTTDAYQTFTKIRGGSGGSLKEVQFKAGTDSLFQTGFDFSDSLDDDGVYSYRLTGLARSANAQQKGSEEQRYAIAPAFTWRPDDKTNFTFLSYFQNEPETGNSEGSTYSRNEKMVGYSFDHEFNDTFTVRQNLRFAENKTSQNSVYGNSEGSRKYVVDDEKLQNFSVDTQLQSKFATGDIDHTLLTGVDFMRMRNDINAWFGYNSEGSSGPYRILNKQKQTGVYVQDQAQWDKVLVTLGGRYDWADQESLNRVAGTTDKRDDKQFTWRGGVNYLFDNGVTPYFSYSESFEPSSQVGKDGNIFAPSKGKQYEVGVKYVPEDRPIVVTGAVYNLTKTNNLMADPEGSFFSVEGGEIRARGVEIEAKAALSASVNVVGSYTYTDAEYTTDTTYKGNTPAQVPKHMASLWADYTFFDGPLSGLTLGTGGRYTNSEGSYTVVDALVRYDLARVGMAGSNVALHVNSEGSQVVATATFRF

[2] = molecular target: T1, OBn(GGS)2t-FhuA (barnase nanopore …); assay: other, single-molecule nanopore, 300 mM KCl, pH 8
[3] = molecular target: T1, OBn(GGS)2t-FhuA (barnase nanopore …); assay: other, single-molecule nanopore, high Bs concentration

B1: Barstar (Bs) (protein)
chain: MKKAVINGEQIRSISDLHQTLKKELALPEYYGENLDALWDALTGWVEYPLVLEWRQFEQSKQLTENGAESVLQVFREAKAEGADITIILS
B1 was tested, and the Kd [1] was 61 nM, the Kd [2] was 64 nM and the Kd [3] was 82 nM.
